Data: the nanobody polyreactivity screen of Harvey et al. (2022)

Experiment: yeast display, Sf9 membrane polyspecificity reagent, FACS + sequencing; frameworks hold sequencing errors
How it was run: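 Nanobodies came from a synthetic yeast display library in Saccharomyces cerevisiae BJ5465, induced with galactose for 36–48 hours and stained for 1 hour at 4 °C with 10% biotinylated, detergent-solubilized Sf9 membrane reagent. Cells were enriched on streptavidin microbeads and then FACS-sorted, with low and high (top ~1%) gates set on anti-HA fluorescence for expression and streptavidin fluorescence for reagent binding. Each polyreactivity label reflects the gate a clone came from. Genes were amplified by colony PCR, sequenced by MiSeq 2 × 250 and filtered by CDR length.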

| Sequence | polyreactivity (PSR sort gate) |
| --- | --- |
| QDHLVESGGCLVQAGGTLRLSCAASGFTIGNYAMAWYRQPPGKERELVAAISWSGGSTYYADSVKGRFTISRDNAKNTVYLQMNSLNPEVTAVYYCNPKRGSLWESDYWGQGSQVTVSS | high polyreactivity |
| QVQLVESGGGLVQAGGSLRLSCAASGGIFARNVMGWYRQAPGKERELVAAISGSGGSTYYADSVKGRFTISRDNAKNTVYLQMNSLKPEDTAVYYCAARTPGVSVYKDGYWGQGTQVTVTS | low polyreactivity |
| QVQLVESGGGLVQAGGSLRLSCAASGGIFPAYAMGWYRQAPGKERELVASISSSGGSTYYADSVKGRFTISRDNAKNTVYLQMNSLKPEDTAVYYCNVAQYLRARRPVDYWGQGTQVTVSS | high polyreactivity |
| QVQLVESGGCLVKAGGSLRLSCAASGSIFGHYAMGWYRQAPGKERELVASIDSGGRTNYADSVKGRFTISLDNAKNTVYLQMISLKPEDTGVYYCNTTSVKTRGYGYWGQGSQVTVSS | low polyreactivity |
| QVQLVESGGGLVQAGGSLRLSCAASGYTFPDYAMGWYRQAPGKERELVAAFRSGGGTNYADSVKGRFTISRDNAKNTVYLQMNSLKPEDTAVYYCAKEWAGGLYDYWGQGTQVTVSS | low polyreactivity |
| QVQLVESGGGLVQAGGSLRLTCAASGSIFQRNAIGWYRQAPGKERELVAAITASGGRTYYADSVKGRFTISRDNAKNTVYLQMNSLKPEDTAVYYCAARGRTYCGGRTYDYWGHGTQVTVSS | high polyreactivity |
| QVQHVESGGGLVQAGGSLRLSCAASGSIFSAYTMGWYRPAPGKERELVAAISSSGGRTYYADSVKGRFTISRDNAKNTVYLQMNSLKPEDTAVYYCAAGYWWALSSRGYGYWGQGTQVTVSS | high polyreactivity |
| QFQPVESGGGLVQAGGSLRLSCAASGFTFYRYAMGWYRPAHGKERELVAAITFSGSSTYYADSVKGRFTISRDNAKNTVYLQMNSLKEEDTAVYYCAAGGSFWYFSPRYGYWGQGTQVTVSS | high polyreactivity |
| QVQLVESGGGLVQAGGSLRLSCAASGRIYAMGWYRQAPGKERELVAAISRGGSTYYADSVKGRFTISRDNAKNTVYLQMNSLKPEDTAVYYCARRYASTGYDYWGQCTQVTVSS | high polyreactivity |
| QVQLVESGGGLVQAGGSLRLSCAASGSIFIDYVMGWYRQAPGTERELVAAISKRGGSTYYADSVKGRFTISRDNAKNTVYLQMNSLKPEDTAVYYCNAYRIGVYTAKDGYWGQGTQVTVSS | high polyreactivity |
| QVQLVESGGGLVQAGGSLRLSCAASGGTFYVYAMGWYRQAPGKERELVAAISTSDGITYYADSVKGRFTISRDNAKNTVYLQMNSLKPEDTAVYYCAAEFFSSFTYAYDYWGQGTQVTVSS | high polyreactivity |
| QVQLVETGGGLVQAAGSLRLSSAASGSTFLANTMGWYRQEPGKEREFVAAITRRGGSTYYADSVKGRFTISRDNAKNTVYLQMNSLKPEDTAVYYCNADWYFQYPYDYWGQGTQVTVSS | low polyreactivity |
| QVQLVESGGGLVQAGGSLRLSCAASGGSFLVNDMGWYRQAPGTERELVAAITSGGGTYYADSVKGRFTISRDNAKNTVYLQMNSLNPEDTAVYYCARDTYRPIVSNESYGYWGQGTQVTVSS | low polyreactivity |
| QVHLVESGGGLVQAGGSLRLSCAASGSTFGYYDMGWYRQAPGKERELVATISSGGGTNYADSVKGRFTISRDNAKNTVYLQMNSLKPEDTAVYYCAVTYGSKKARYSIYPRYGYWGQGTQVTVSS | low polyreactivity |
| QVQLVESGGGLVQAGDSLRLSCAASGRIFKRNTMGWYRQAPGKERELVAAITRSGGSTYYADSVKGRFTISRDNAMNNVYLQMNSLKPEDTAVYYCNAPQYIGSVPIGDYWGLGTQVTVSS | high polyreactivity |
| QVQLVESGGGLVQAGGSLRLSCAASGITFYRYALGWYRQAPGKERELVAAISSSGGSTYYADSVKGRFTISRDNAKNTVYLQMNRLKPEDTAVYYCNAYYSVEYYYWGQGTQVTVSS | high polyreactivity |
| QVQLVESGGGLVQAGGSLRLSCAASGFTFNKYAMGCYRQAPGKERELVAAISGSGGRTYYADSVKGRFTISRDNAKNTVYLQMNSLKPEDTAVYYCAAQRSVKVDYWGQGTQVTVSS | high polyreactivity |
| QVQLVESGGGLVQAGGSLRLSCAASGGSFIANAMGRYRQAPGTEREVVAAITSGGSTNYADSVKGRFTISRDNAKNTVYLQMNSLKPDDTAVYYCNAEQNPSGLYDYRGVEGEMGYWGQGTQVTVSS | low polyreactivity |
| QVPLVESGGGLVQAGGSLRLSCAASGSICGGYAMGWYRQAPGKERELVAGITYSGDSTYYADSVKGRFTISRDNAKNTVYLQMNSLKPEDTAGYYCNADQRVDHDDFDYWGQGTQVTVSS | low polyreactivity |
| QVQLVESGGGLVQAGGSLRLSCAASGRTLRGNAMGWYRQAPGKERELVAGITSGGSTNYADSVKGRFTISRDNAKNTVYLQMNSLKPEDTAVYYCAAAYYLSFGRYYTNYDYWGQGTQVTVSS | high polyreactivity |
| QVQLVESGGGLVQAGGSLRLSCAASGRIFKDYAMGLYRQAPGKERELVAGIDYRGGSTYYADSVKGRFTISRDNAKNTVYLQMNSLKPEDNAVYYCAADSLISIYDYWGQGTQVTVSS | low polyreactivity |
| QVQLVESGGGIVQAGGSLLLSCAASGSISFLYTMGWYRQAPGKERELVAAITGSTASTYYADSVKGRFTISRDNAKNTVYLQMNSLKPEDTAVYYCAAYWYAEGYWVSRDYWGQGTQVTVSS | low polyreactivity |

| Sequence | polyreactivity (PSR sort gate) |
| --- | --- |
| QVQLVESGGGLVQAGGSLRLSCAASGSTFYGYAMGWYRQAPGKERELVAAITRSGGSTYYADSVKGRFTISRDNAKNTVYLQMNSLKPEDTEVYYCNKYGYKGGVGYDYWGQGSQVTVSS | high polyreactivity |
| QVQLVESGGGLVQAGGSLRLSCAASGSIFYVYVMGWYRQAPGKERELVAGISYRGGSTYYADSVKGRFTISRDNAKNTVYLQMNSLKPEDTAVYYCNAGVWTYWHIEMDYWGQGTQVTVSS | low polyreactivity |
| QVQLVESGGGLVQARGSLRLSCAASGNTFPSYAMGWYRQAHGKERELVAAITSGGRTYYADSVNGRFTISRDNAKNTVYLQLNSLKPEDTAVYYCAAEWVVRYPWYRYYYWGQGTEVTVSS | high polyreactivity |
| QVQLVESGGGLVQAGGSLRLSCAASGSTFAGYVMGWYRQAPGKERELVADISGRGGNTYYADSVKGRFTISRDNAKNTVYLQMNRLKPEDTAVYYCASILSRRYGYWGQGTQVTVSS | high polyreactivity |
| QDQLVESGGGLVQAGGSLRLSCAASGLTFEKYAMGWYRQAPGKERELVAAISQDGGSTYYADSVKGRFTISRDNAKNTVYLQMNSLKPEDTAVYYCAAEDPDSWLPWDLFDYWGQGTQVTVSS | low polyreactivity |
| QVQLVESGGGLVQAGGSLRLSCAASGFTFGRYAMGWYRQAPGKERELVAAINYTDGSTYYADSVKGRFTISRDNAKNTVYLQMNSLKPEDTAGYYCAATTLSFEGGKYWSKYDYWGQGTQVTVSS | low polyreactivity |
| QVQLVESGGGLVQAGGSLRLSCAASGFTFGSYAMGWYRQAPGKERELVAGITFSTGTTSYADSVKGRFTISRDNAKTTVYLQMNSLKPEDTAVYYCAADLIPNEDYWGQGTQVTVSS | low polyreactivity |
| QDQLGDSGGGLVQAGGSLRLSCAASGFTFGKYAMGWYRQAPGKERELVAAISWSGASTYYADSVKGRFTISRDNAMNTVYLQMNSLKAEDTALYYCAKRDYSYPWFRDYYYWGQGTLVTVSS | low polyreactivity |
| QVQLVESGGGLVQAGGSLRLSCAASGRIFFIYPMGWYRQAPGKERELVAGINRTGGSTYYADSVKGRFTISRDNAKNTVYLQMNSLKPEDTAVYYCAAVSYYASDYRYDYWGQGTQVTVSS | low polyreactivity |
| QVQLVESGAALVQAGGSLRLSCAASGFIIYDYMGWYRQAPGKERELVAVISYSGSSTYYADSVKGRFTISRDNAKNTDYLQMNSLKPEDTAVYYCAARNVNGWDYDYWGLGTQVTVSS | low polyreactivity |
| QVQLVESGGGLVQAGGSLRLSCAASGRIFKTYTMGWYRQAPGKERELVAVITSGGGTYYADSVKGRFTISRDNAKNTVYLQMNSLKPEDTAVYYCAARGLESPYGYWGQGTQVTVSS | low polyreactivity |
| QLQLVESVGGLVQAGGSLRLSCAGSGRIFGRSAMGWYTHAPGKHRALVAAISRSGGSTYYADSVKGRVTISRDKAKNTVYLQMYSLKPEDTAVYNCNRRYITYNDDYWGQGTQVTVSS | high polyreactivity |
| QVQLVESGGGLVQAGGSLRLSCAASGSIFPRYAMGWYRQAPGKERELVATISQSGGSTYYADSVKGRFTISRDSAKNTVYLQMNSLKPEDTAVYYCAAKVYRSAYYVGKYYPYYYWGQGTQVTVSS | high polyreactivity |
| QVQLVESGGGLVQAGGSLRITCAASGSIFTGNAMGWYRQAPGKERELVAAISSSGGSTYYADSVKGRFTLSRDNAKNTVYLQMNSMKPEDTAVYYCAAYNNFLQYDYWGQGTQVTVSS | low polyreactivity |
| QVQLVESVGVLVQAGGSLRLSCAASGRTFYRNAVGWYRQAPGKERELVAAISRSGTRTYYADSVKGRFTISRDNATNTVYLQMNSLKPEDTAVYYCNALRVDGGDYWGQGTQVTVSS | high polyreactivity |
| QVQLVESGGGLVQAGGSLRLSCASSGSTFYRYAMGWYRQAPGKERELVARINTGGSTSYAYSVKGRFTISRDNAKNTVYLQKNSLKPVDTAVYYCAASSRYAVFGRYYYWGQGTQVTVSS | high polyreactivity |
| QVQLVESGGGLVQAGGSLRLSCAATGIIFSWYDMGWYRQAPGKERELVAAITSGGSTYYADSVKGRFTISRDNAKNTVYLLMNSLKPEDTAVYYCNRYSYLFPYYWKYDYCGQGTQVTVSS | high polyreactivity |
| QVQLVESGGGLVQAGGSLRLSCAASGRTFRYNVMGWYRQAPGKERELVASISRISGSTYYADSVKGRFTISRDNAKNTVYLQMNSLKPEDTADYYARAAGEYDYWGQGTQVTVSS | high polyreactivity |
| QVQLVESGGGLVQAGGSLRLSCAASGSILYYNAMGWYRQAHGKEREFVASISLTGGSTTYADSVKGRFTISRDNAKNTVYLQMNSLKPEDTAVYYCNATHYPAADRSTNNYGGGFDYWGEGTQVTVSS | low polyreactivity |
| QVQLVESGGGLVQAGGSLRLSCAASGFTFNYYAMGWYRQAPGKERELVAGITRSGVSTNYADSVKGRFTISRDNAKNTVYLQMNSLKPEDTAVYYCAREEGRRYRGWPYVYAPQHDYWGQGTQVTVSS | high polyreactivity |
| QVQLVESGGGLVQEGGSLRLSCAASGSTFSNYMGWYRQAPGKERELVAAITQSGVSTYYADSVKGRFTISRDNAKNTVYLQMNSLKPEDTAVYYCYNYLSGYDYWGQGTQVTVSS | low polyreactivity |
